“Also recorded” adds a separate entry of the source.
Key:
[1] = system: NIS expressing organs (thyroid and stomach) and BXPC-3-hNIS tumor; assay: SPECT/CT dual isotope imaging of nude mice with BXPC-3-hNIS tumors; conditions: four hours after i.p. 250 μCi of each isotope
Protocol: FIG. 6. SPECT/CT dual isotope imaging of nude mice implanted with SQ BXPX-3-hNIS tumors. Animals were injected i.p with 250 μCi ^125I and 250 μCi ^99mTc and imaged four hours later. Images were processed using Vivo Quant software. The scale was adjusted manually to get minimal yellow in the tissues.
The stomach and thyroid signals were subtract from the SPECT dataset (FIG. 5). In this experiment, nude female mice (5-week of age) were injected with 3×10^6 BXPC-3-hNIS cells. When tumors reached a diameter of 1 cm, mice were injected I.P. with ^125I sodium iodide (250 μCi) and/or ^99mTc-pertechneate (250 μCi). Four hours post isotope administration, SPECT/CT data were acquired with U-SPECT-II (MiLabs). The SPECT emission data were collected in dual-energy windows to separate the gamma emision energy counts from ^99mTc (140 keV) and ^125I (35 keV). […] Radioiodide thyroid signal subtraction was performed by normalizing the ^125I SPECT data to thyroid tissue on the ^99mTc SPECT data using the image arithmetic tools available in PMOD image fusion software. This was performed in three steps by (1) calculating the normalization factor (i.e., the inverse ratio between the maximum voxel value corresponding to the thyroid tissue on the ^125I SPECT and the maximum voxel value corresponding to the thyroid tissue on the ^99mTc SPECT data set), (2) multiplying each voxel in the ^125I SPECT dataset by this normalization factor, and (3) subtracting the normalized ^125I SPECT dataset from ^99mTc SPECT data set to generate a thyroid subtraction SPECT dataset (FIG. 5C). Similarly, ^99mTc stomach signal subtraction was performed by (1) calculating the normalization factor which in this case is the inverse ratio of the maximum voxel value corresponding to the stomach tissue on the ^99mTc SPECT to the maximum voxel value corresponding to the stomach tissue in the ^125I SPECT data set, (2) multiplying each voxel in the ^99mTc SPECT dataset by this normalization factor, and (3) subtracting the normalized ^99mTc SPECT dataset from ^125I SPECT data set to generate a stomach subtraction SPECT dataset (FIG. 5B).

[2] = system: NIS polypeptide-mediated uptake in stomach; assay: NIS imaging of a mouse fed oral CT contrast agent by gavage; format: in vivo; conditions: mouse with NIS transduced liver, then imaged
Text: In the following example, ingestion of barium sulfate was used to enable and enhance discrimination of NIS expression in the liver.

NIS expressing cells = conditions: less efficiently than iodide; cited from earlier work
NIS = target: T1, NIS (Homo sapiens, UniProt Q92911); assay: iodide mediated quenching of YFP-H148Q/I152L fluorescence; format: cell-based; conditions: 5 mM KClO4; quenching mediated by 200 mM NaI; FIG. 3
T1 construct: expressed in transfected cells; host or cells: cells transduced with the lentiviral vector
T1 sequence (Q92911 1-643): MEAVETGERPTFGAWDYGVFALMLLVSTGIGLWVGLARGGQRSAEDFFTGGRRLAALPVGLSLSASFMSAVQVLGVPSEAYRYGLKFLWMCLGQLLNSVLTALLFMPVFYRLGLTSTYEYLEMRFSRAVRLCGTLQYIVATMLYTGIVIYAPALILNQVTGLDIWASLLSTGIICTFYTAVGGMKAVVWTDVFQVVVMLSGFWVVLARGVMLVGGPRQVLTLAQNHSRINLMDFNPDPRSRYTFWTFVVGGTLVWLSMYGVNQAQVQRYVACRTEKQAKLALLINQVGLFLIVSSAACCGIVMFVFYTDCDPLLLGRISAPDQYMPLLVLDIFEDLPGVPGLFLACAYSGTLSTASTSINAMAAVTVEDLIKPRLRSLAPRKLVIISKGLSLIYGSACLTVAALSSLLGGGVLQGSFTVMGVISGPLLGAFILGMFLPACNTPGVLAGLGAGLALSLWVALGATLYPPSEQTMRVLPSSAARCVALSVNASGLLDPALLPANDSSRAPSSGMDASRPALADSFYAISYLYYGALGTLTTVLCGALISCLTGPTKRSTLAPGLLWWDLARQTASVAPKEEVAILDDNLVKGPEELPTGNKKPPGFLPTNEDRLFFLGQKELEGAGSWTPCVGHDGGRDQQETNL
Protocol: 72 hours post infection, the cells are subjected to two color flow cytometry to determine the percentage of cells that express YFP-H148Q/I152L and are tagged with anti-HA antibody conjugated to Alexa Fluor 647. To determine the percentage hNIS variants that can transport iodide into the cell, infected cells are treated with 200 μM NaI. The quenching of YFP-H148Q/I152L fluorescence (output for intracellular iodide uptake) is analyzed by flow cytometry.
Five million cells are infected at a moi of 1 with the lentiviral library transducing HA-hNIS variants. On the third day post infection, the cells are expanded to increase the number of cells expressing each unique NIS variant to limit the potential of it being lost during the selection procedure. On day 5, infected cells that fluoresce brightly are selected for by fluorescence-activated cell sorting (FACS) and collected in HBSS/HEPES buffer Immediately thereafter, these cells are incubated for 5 minutes with KClO4 at a concentration that inhibits iodide transport by non-mutated NIS. Then, NaI is added to the cells to a finale concentration of […], and the cells are incubated for 10 minutes at 37° C. Cells whose fluorescence is quenched in the presence of KClO4 are selected for by flow sorting. […]

[3] = system: BxPC3 cells (human pancreatic tumor cells); assay: 123I/99mTc subtraction SPECT of BxPC3 tumors expressing NIS or NIS-93E in athymic mice; format: in vivo; conditions: subcutaneous BxPC3 tumors; four hours after i.p. 123I and 99mTcO4
Protocol: Image subtraction is used to discriminate a tumor that concentrates only one of two NIS isotopes from organs that concentrate both isotopes (e.g., thyroid gland, stomach, and salivary glands). BxPC3 cells (human pancreatic tumor cells) stably expressing either wild-type human NIS polypeptides or human mutant NIS-93E polypeptides are implanted subcutaneously in the flanks of athymic mice. Once tumors grow to a diameter of 5-8 mm, ^123I/^99mTc subtraction SPECT is performed using a dual-detector SPECT camera. Four hours after the intraperitoneal administration of 250 μCi ^123I sodium iodide and 250 μCi ^99mTcO4, SPECT/CT data are acquired. The SPECT emission data are collected in dual-energy windows to separate the ^99mTc and ^123I counts. The ^99mTc window is centered at 140 keV, and the ^123I window is placed with a 4% offset above 159 keV to minimize the spillover of the ^99mTc photopeak into the much less intense ^123I photopeak. SPECT reconstruction is performed for each of the two acquisition windows. ^123I SPECT voxel intensities on thyroid tissue are normalized to the corresponding ^99mTc SPECT data, and in this way a normalization factor is determined Each voxel in the ^123I SPECT dataset is then multiplied by this normalization factor, and the normalized ^123I SPECT data is subtracted from the ^99mTc SPECT data to create a subtraction SPECT dataset. […]

Mel624 cells = assay: radiotracer uptake assay in Mel624 cells stably expressing NIS polypeptides; format: cell-based, human; conditions: for uptake of pertechnetate (Technetium-99m) / uptake of radioiodide (Iodine-125): Mel624 cells stably expressing the NIS polypeptide, 37° C. for 1 hour, +/−300 μM KClO4, gamma counter
Protocol: Mel624 cells stably expressing a wild-type human NIS polypeptide (Mel-NIS) or one of two mutant NIS polypeptides (Mel-NIS-93E or Mel-NIS-93Q) were plated in 96-well plates at a density that would lead them to confluency on the day of the uptake assay. 1× Hank's balanced salt solution with calcium, magnesium (HBSS) (Cellgro) and 1 mM HEPES was adjusted to pH 7.3 using KOH (HBBS-HEPES) on the day of the assay. Culture medium was removed from the cells, and 150 μL of HBSS-HEPES+/−300 μM KClO4 was added to the wells. The cells were incubated for 10 minutes at room temperature prior to the addition of radiotracer. Radiotracers, ^125I and ^99mTc, were diluted in HBSS-HEPES to about 70,000 to 100,000 CPM/25 μL (CPM, counts per minute). 25 μL of radiotracer was added to the cells in HBSS-HEPES+/−KClO4, and the cells were incubated at 37° C. for 1 hour. The cells were then washed twice with cold HBSS-HEPES buffer and lysed to release the intracellular radiotracer by adding 200 μL 1M NaOH. Lysates were transferred to strip tubes and quantified using a gamma counter.

[O]=[99Tc](=[O])(=[O])[O-] [^99mTc, ^99mTc-pertechneate]
accumulation in stomach [1]: preferentially accumulates | accumulation in tumor (BXPC-3-hNIS) [1]: does not discriminate between the two isotopes; also recorded: accumulate both isotopes to similar concentrations

O=S(=O)([O-])[O-].[Ba+2] [barium sulfate]
isotope signals from the stomach [2]: reduced isotope signals from the stomach | isotope signals from the stomach ([2]; listed as oral contrast agent): significant reduction of the stomach signal

[125I-].[Na+] [^125I, ^125I sodium iodide]
accumulation in thyroid [1]: preferentially accumulates | accumulation in tumor (BXPC-3-hNIS) [1]: does not discriminate between the two isotopes; also recorded: accumulate both isotopes to similar concentrations

[K+].[O-][Cl+3]([O-])([O-])[O-] [perchlorate, KClO4]
efficiency of concentration in NIS expressing cells compared to iodide anions (NIS expressing cells): 10 fold | effect on iodide mediated quenching of YFP-H148Q/I152L (NIS): inhibition

B1: NIS-93E: mutant human sodium iodide symporter polypeptide, amino acid sequence SEQ ID NO:1 (FIG. 4) (protein, listed as Homo sapiens)
chain: MEAVETGERPTFGAWDYGVFALMLLVSTGIGLWVGLARGGQRSAEDFFTGGRRLAALPVGLSLSASFMSAVQVLGVPSEAYRYGLKFLWMCLEQLLNSVLTALLFMPVFYRLGLTSTYEYLEMRFSRAVRLCGTLQYIVATMLYTGIVIYAPALILNQVTGLDIWASLLSTGIICTFYTAVGGMKAVVWTDVFQVVVMLSGFWVVLARGVMLVGGPRQVLTLAQNHSRINLMDFNPDPRSRYTFWTFVVGGTLVWLSMYGVNQAQVQRYVACRTEKQAKLALLINQVGLFLIVSSAACCGIVMFVFYTDCDPLLLGRISAPDQYMPLLVLDIFEDLPGVPGLFLACAYSGTLSTASTSINAMAAVTVEDLIKPRLRSLAPRKLVIISKGLSLIYGSACLTVAALSSLLGGGVLQGSFTVMGVISGPLLGAFILGMFLPACNTPGVLAGLGAGLALSLWVALGATLYPPSEQTMRVLPSSAARCVALSVNASGLLDPALLPANDSSRAPSSGMDASRPALADSFYAISYLYYGALGTLTTVLCGALISCLTGPTKRSTLAPGLLWWDLARQTASVAPKEEVAILDDNLVKGPEELPTGNKKPPGFLPTNEDRLFFLGQKELEGAGSWTPCVGHDGGRDQQETNL
isotope concentration by tumors expressing the polypeptide, subtraction SPECT [3]: concentrate only iodide and not pertechnetate | iodide versus TcO4 concentrating efficiency (Mel624 cells): concentrate iodide with greater efficiency than TcO4 | concentration of Iodine-125 uptake in tumor cells as compared to non-mutated NIS (NIS WT) (Mel624 cells; FIGS. 1A and 1B): decrease | uptake of pertechnetate (Technetium-99m) (Mel624 cells): not pertechnetate | uptake of radioiodide (Iodine-125) (Mel624 cells): capable of up-taking radioiodide | uptake of pertechnetate (Technetium-99m) (Mel624 cells; listed as G93E): not Technetium-99m | uptake of radioiodide (Iodine-125) (Mel624 cells; listed as G93E): selectively transports Iodine-125 | uptake of pertechnetate (Technetium-99m) (Mel624 cells; listed as NIS-G93E): not Technetium-99m | uptake of radioiodide (Iodine-125) (Mel624 cells; listed as NIS-G93E): transport selectively Iodine-125

B2: wild-type human NIS polypeptide: wild-type human sodium iodide symporter polypeptide (protein, UniProt Q92911 1-643, looked up)
Sodium/iodide cotransporter: MEAVETGERPTFGAWDYGVFALMLLVSTGIGLWVGLARGGQRSAEDFFTGGRRLAALPVGLSLSASFMSAVQVLGVPSEAYRYGLKFLWMCLGQLLNSVLTALLFMPVFYRLGLTSTYEYLEMRFSRAVRLCGTLQYIVATMLYTGIVIYAPALILNQVTGLDIWASLLSTGIICTFYTAVGGMKAVVWTDVFQVVVMLSGFWVVLARGVMLVGGPRQVLTLAQNHSRINLMDFNPDPRSRYTFWTFVVGGTLVWLSMYGVNQAQVQRYVACRTEKQAKLALLINQVGLFLIVSSAACCGIVMFVFYTDCDPLLLGRISAPDQYMPLLVLDIFEDLPGVPGLFLACAYSGTLSTASTSINAMAAVTVEDLIKPRLRSLAPRKLVIISKGLSLIYGSACLTVAALSSLLGGGVLQGSFTVMGVISGPLLGAFILGMFLPACNTPGVLAGLGAGLALSLWVALGATLYPPSEQTMRVLPSSAARCVALSVNASGLLDPALLPANDSSRAPSSGMDASRPALADSFYAISYLYYGALGTLTTVLCGALISCLTGPTKRSTLAPGLLWWDLARQTASVAPKEEVAILDDNLVKGPEELPTGNKKPPGFLPTNEDRLFFLGQKELEGAGSWTPCVGHDGGRDQQETNL
uptake of pertechnetate (Technetium-99m) (Mel624 cells): Substantial uptake | uptake of radioiodide (Iodine-125) (Mel624 cells): Substantial uptake

Source: patent US20140271456A1, “RADIOTRACER IMAGING USING SODIUM IODIDE SYMPORTER POLYPEPTIDES” (Mayo Foundation for Medical Education and Research, priority 2013, published 2014)
